T1: SmTGA5 (Salvia miltiorrhiza, UniProt UPI0025ACD97B 1-458)
T1 sequence: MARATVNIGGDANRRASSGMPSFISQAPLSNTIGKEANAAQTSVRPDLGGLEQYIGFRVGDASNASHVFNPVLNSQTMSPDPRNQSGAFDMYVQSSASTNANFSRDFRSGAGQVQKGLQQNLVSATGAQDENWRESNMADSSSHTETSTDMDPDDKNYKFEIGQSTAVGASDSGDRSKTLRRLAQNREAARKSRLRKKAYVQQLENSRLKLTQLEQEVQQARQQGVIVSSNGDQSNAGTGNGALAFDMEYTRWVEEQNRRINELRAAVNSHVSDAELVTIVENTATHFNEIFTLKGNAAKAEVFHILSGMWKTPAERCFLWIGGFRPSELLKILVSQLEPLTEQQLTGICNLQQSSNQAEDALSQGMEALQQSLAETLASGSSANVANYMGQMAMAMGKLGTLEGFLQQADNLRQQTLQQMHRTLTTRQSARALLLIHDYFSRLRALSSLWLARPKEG

B1: Probe-pTAT1 (3x as-1) (dsDNA)
DNA 1: TTTAAAGTGACGTGTATCATTTAAAGTGACGTGTATCATTTAAAGTGACGTGTATCA
DNA 2: TGATACACGTCACTTTAAATGATACACGTCACTTTAAATGATACACGTCACTTTAAA
B2: Mut-Probe-pTAT1 (dsDNA)
DNA 1: TTTAAAGTTAAATGTATCATTTAAAGTTAAATGTATCATTTAAAGTTAAATGTATCA
DNA 2: TGATACATTTAACTTTAAATGATACATTTAACTTTAAATGATACATTTAACTTTAAA

Experiments:
SmTGA5 [1] = molecular target: T1, SmTGA5; assay: EMSA; unlabeled probe at 1:10 and 1:100 reduces the shift; Beyotime GS009 EMSA kit, 20-25 C, 20 min, acrylamide gel; buffer, salt and pH not stated; details: protein: recombinant; tags: His (pET32a, N-terminal fusion); chain copies: 2; blunt
SmTGA5 [2] = molecular target: T1, SmTGA5; assay: EMSA; Beyotime GS009 EMSA kit, 20-25 C, 20 min, acrylamide gel; buffer, salt and pH not stated; details: protein: recombinant; tags: His (pET32a, N-terminal fusion); chain copies: 2; blunt

Binder | binding result (SmTGA5 [1]) | binding result (SmTGA5 [2])
B1 | binds | 
B2 |  | no binding

— publication PMC10208894, “The SmNPR4-SmTGA5 module regulates SA-mediated phenolic acid biosynthesis in Salvia miltiorrhiza hairy roots”
